# The Immune Epitope Database (IEDB)
# pKd: −log10 of the molar value.
# Key:
# [1] = target: HLA-B*40:01; assay: IEDB peptide-MHC binding, purified MHC/competitive/fluorescence; filed as Kd, often an IC50 or EC50 that approximates it; ≥ and ≤ were set here for values at or beyond the usual limits of such assays
# [2] = target: HLA-B*15:01; assay: as above; conditions: source organism: Escherichia coli O139:H28 str. E24377A
# [3] = target: HLA-B*83:01; assay: as above
# [4] = target: HLA-B*45:06; assay: as above
# [5] = target: HLA-B*15:42; assay: as above
# [6] = target: HLA-B*58:01; assay: IEDB peptide-MHC binding, purified MHC/competitive/radioactivity; filed as Kd, often an IC50 or EC50 that approximates it; ≥ and ≤ were set here for values at or beyond the usual limits of such assays
# [7] = target: HLA-B*57:01; assay: as above
# [8] = target: HLA-A*01:01; assay: as above
# [9] = target: HLA-A*68:02; assay: as above
# [10] = target: HLA-A*02:11; assay: IEDB peptide-MHC binding, purified MHC/direct/fluorescence; filed as Kd, often an IC50 or EC50 that approximates it; ≥ and ≤ were set here for values at or beyond the usual limits of such assays; conditions: source organism: Mycobacterium tuberculosis F11
# [11] = target: HLA-A*69:01; assay: as above
# [12] = target: HLA-A*02:03; assay: as above; conditions: source organism: Mycobacterium tuberculosis F11
# [13] = target: HLA-B*48:01; assay: as above
# [14] = target: HLA-A*11:01; assay: as above
# [15] = target: HLA-B*18:01; assay: as above
# [16] = target: HLA-B*58:01; assay: as above
# [17] = target: HLA-B*15:01; assay: as above
# [18] = target: HLA-A*01:01; assay: as above
# [19] = target: HLA-A*02:01; assay: as above
# [20] = target: HLA-A*03:01; assay: as above
# [21] = target: HLA-B*46:01; assay: as above
# [22] = target: HLA-B*07:02; assay: as above
# [23] = target: HLA-B*44:02; assay: as above; conditions: source organism: West Nile virus
# [24] = target: HLA-B*57:01; assay: as above
# [25] = target: HLA-B*27:05; assay: as above
# [26] = target: HLA-A*29:02; assay: IEDB peptide-MHC binding, purified MHC/competitive/fluorescence; filed as Kd, often an IC50 or EC50 that approximates it; ≥ and ≤ were set here for values at or beyond the usual limits of such assays
# [27] = target: HLA-A*01:01; assay: as above; conditions: source organism: Xenopus laevis
# [28] = target: HLA-B*53:01; assay: IEDB peptide-MHC binding, purified MHC/competitive/radioactivity; filed as Kd, often an IC50 or EC50 that approximates it; ≥ and ≤ were set here for values at or beyond the usual limits of such assays
# [29] = target: HLA-A*03:01; assay: IEDB peptide-MHC binding, purified MHC/competitive/fluorescence; filed as Kd, often an IC50 or EC50 that approximates it; ≥ and ≤ were set here for values at or beyond the usual limits of such assays
# [30] = target: HLA-A*31:01; assay: as above
# [31] = target: HLA-A*26:01; assay: as above; conditions: source organism: Orthohantavirus andesense
# [32] = target: HLA-B*51:01; assay: as above; conditions: source organism: Orthohantavirus andesense
# [33] = target: HLA-B*39:01; assay: as above; conditions: source organism: Orthohantavirus andesense
# [34] = target: HLA-B*27:03; assay: as above; conditions: source organism: Orthohantavirus andesense
# [35] = target: HLA-B*15:17; assay: as above; conditions: source organism: Orthohantavirus andesense
# [36] = target: HLA-B*40:01; assay: IEDB peptide-MHC binding, purified MHC/direct/fluorescence; filed as Kd, often an IC50 or EC50 that approximates it; ≥ and ≤ were set here for values at or beyond the usual limits of such assays; conditions: source organism: Orthohantavirus andesense
# [37] = target: HLA-A*29:02; assay: as above; conditions: source organism: Orthohantavirus andesense
# [38] = target: HLA-A*68:02; assay: as above; conditions: source organism: Orthohantavirus andesense
# [39] = target: HLA-B*08:01; assay: as above; conditions: source organism: Orthohantavirus andesense
# [40] = target: HLA-A*02:12; assay: as above; conditions: source organism: Orthohantavirus andesense
# [41] = target: HLA-A*31:01; assay: as above; conditions: source organism: Orthohantavirus andesense
# [42] = source organism: Yersinia pestis Nepal516
# [43] = source organism: Dengue virus 4 Philippines/H241/1956
# [44] = source organism: West Nile virus
# [45] = source organism: Dengue virus 3 Martinique/1243/1999
# [46] = source organism: Bacillus anthracis str. A0488
# [47] = source organism: Dengue virus 1 Brazil/97-11/1997
# [48] = source organism: Influenza A virus
# [49] = source organism: human gammaherpesvirus 4
# [50] = source organism: Orthohantavirus andesense
sequence,measurement,setting,value
AEIEDLIFL,pKd,[1]; source organism: Influenza A virus (A/swine/Italy/1509-6/97(H1N1)),9.30
AENHFLVGL,pKd,[2],≤ 4.70
same,pKd,[1]; source organism: Escherichia coli O139:H28 str. E24377A,8.60
AEYLYADGI,pKd,[3]; [42],≤ 5.30
same,pKd,[4]; [42],≤ 5.30
same,pKd,[5]; [42],≤ 5.30
same,pKd,[1]; [42],8.37
ASGKLVTQW,pKd,[6]; [43],7.80
same,pKd,[7]; [43],6.86
ESSKNQTWQI,pKd,[6]; [43],5.80
same,pKd,[8]; [43],≤ 4.15
same,pKd,[9]; [43],6.15
same,pKd,[7]; [43],≤ 4.64
ESWEEVPYLG,pKd,[6]; source organism: Dengue virus 2 Jamaica/1409/1983,6.23
FLFGDDDAL,pKd,[10],8.52
same,pKd,[11]; source organism: Mycobacterium tuberculosis,5.68
same,pKd,[12],8.70
FTRYRKEAI,pKd,[13]; [44],≤ 4.70
same,pKd,[14]; [44],≤ 4.70
same,pKd,[15]; [44],≤ 4.70
same,pKd,[16]; [44],≤ 4.70
same,pKd,[17]; [44],≤ 4.70
same,pKd,[18]; [44],≤ 4.70
same,pKd,[19]; [44],≤ 4.70
same,pKd,[20]; [44],≤ 4.70
same,pKd,[21]; [44],≤ 4.70
same,pKd,[22]; [44],≤ 4.70
same,pKd,[23],≤ 4.70
same,pKd,[24]; [44],≤ 4.70
same,pKd,[25]; [44],≤ 4.70
GADTSEVHW,pKd,[6]; [43],7.18
same,pKd,[7]; [43],6.01
GIWHGPYWH,pKd,[26]; source organism: Clostridium botulinum E3 str. Alaska E43,6.64
GSASPTPPY,pKd,[27],7.37
same,pKd,[26]; source organism: Xenopus laevis,8.43
GTSLTQKVVI,pKd,[6]; [45],6.71
same,pKd,[7]; [45],5.64
IAVASGLLW,pKd,[6]; [43],9.18
same,pKd,[28]; [43],7.51
same,pKd,[7]; [43],8.66
IVNMGNPDY,pKd,[26]; source organism: Encephalitozoon cuniculi GB-M1,7.26
KLSSMAAER,pKd,[29]; [46],7.06
same,pKd,[30]; [46],7.80
KRVQEVKGY,pKd,[13]; [44],≤ 4.70
same,pKd,[25]; [44],6.11
KTTLSLDYAW,pKd,[7]; [47],9.07
LIAPRGYFK,pKd,[29]; [48],7.97
same,pKd,[30]; [48],7.47
LTGGVTLFF,pKd,[6]; [47],6.97
same,pKd,[8]; [47],4.72
QELSDAPFL,pKd,[1]; source organism: Influenza A virus (A/Hokkaido/20/89(H3N2)),8.70
QTQRSGVLW,pKd,[6]; [45],8.83
same,pKd,[7]; [45],7.73
RPRPRTPEW,pKd,[3]; [49],6.37
same,pKd,[4]; [49],≤ 5.30
same,pKd,[5]; [49],≤ 5.30
SASSMINGVV,pKd,[6]; [45],5.20
same,pKd,[9]; [45],6.78
same,pKd,[7]; [45],5.70
SIKFKRKLM,pKd,[31],≤ 4.70
same,pKd,[32],≤ 4.70
same,pKd,[33],≤ 4.70
same,pKd,[34],≤ 4.70
same,pKd,[35],≤ 4.70
same,pKd,[13]; [50],≤ 4.70
same,pKd,[14]; [50],≤ 4.70
same,pKd,[15]; [50],≤ 4.70
same,pKd,[16]; [50],≤ 4.70
same,pKd,[11]; [50],≤ 4.70
same,pKd,[17]; [50],≤ 4.70
same,pKd,[18]; [50],≤ 4.70
same,pKd,[19]; [50],≤ 4.70
same,pKd,[20]; [50],≤ 4.70
same,pKd,[36],≤ 4.70
same,pKd,[21]; [50],≤ 4.70
same,pKd,[22]; [50],≤ 4.70
same,pKd,[37],≤ 4.70
same,pKd,[38],≤ 4.70
same,pKd,[39],≤ 5.30
same,pKd,[40],≤ 4.70
same,pKd,[24]; [50],≤ 4.70
same,pKd,[25]; [50],≤ 4.70
same,pKd,[41],≤ 4.70
SSSMRKTDW,pKd,[7]; [45],6.38
STSLLFLNDM,pKd,[7]; [43],7.06
TALFSGVSW,pKd,[28]; [45],7.30
same,pKd,[7]; [45],9.23
TEAKIISLL,pKd,[1]; source organism: Shigella flexneri 5 str. 8401,8.09
VASAAQRRGR,pKd,[6]; [47],6.80
VGGDIRTLY,pKd,[26]; source organism: Coxiella burnetii RSA 331,7.16
